Results: the DeepSol protein solubility set

Test: soluble on expression in E. coli; label from the status in PepcDB or PDB records

Sequence | soluble on expression in E. coli
MPAKPQLISPAGDWTSMRAALDAGADAVYFGAEGFNMRAASKGFSPGDFGGIARLCRSHGAKAYLALNSVIYDAELDEVDRTAAAAKAAGLDAVICWDLAVIEACRRHEMPIHLSTQASVSNINALRFYASLGARMIVLARELTLEQTAAITKCIAAEKLPVTVESFVHGAMCVAISGRCFLSQELFGRSANRGECVQPCRRSYRIADVEEGFELELGSNYVMSPKDLCALPFLDKLFDAGIGAFKIEGRNRSPEYVATTTAAYRKAIDFIAAHRNDKDFDEAYRSLTDRLQNDLVRVYNRGFSEGFFFGKPADAWTKHSGSAATETKSYVGVVRKYFPKAGVAEILVHAPSVDSGVRLSIQGPATGLVTVPDAELHLDGQLANRIEQGQIFTVRCDRVRKNDKVYVLLKN | not soluble
MPANIDGTLIKDPMVLNIMLFGSDERPGETGYGRSDTMMLLSIDNRNKKLKLTSFMRDTYVNVPEWGDTKLTHAYSYGGPALAIETIERNFGIDIDRYAVVYFDTFPGIVDTLGGIEVEMTQTEADVMNESVGPEFANFTEGKNTLNGATALVYVRIRYGVGDDFGRTQRQRDFMLQVLNKVKGTRDVGTLLTLLTKILPGVTTNISVNEMAGLAGGAISSYMDYPMYQFRLPEDGAFSAVDVDAGNVLAIDDWDAAREHLQRFIYEDTVDPIYGPLEHHHHHH | soluble
MPAPLKQLSWSVGCREIGRNCAISFIDALVNSLLAFRIAKRHTKLASECTWSQGRIDFMSENLNHTERQDRAITAPEFDALGRAPFISSLVKTLVHTDYDTSTGEVRSRRATGFVVGLTGEWGLGKSSVLNLLEHDLKQMEHVAVATLNPWLFKGRDEVVEAYFNALREALGFSSSEKARKLLVHLARYKASIEFVGATTAVVIDFVVGTGSATAIWKKWVLKVVRFLSKSRGLSANEERKNLEAKLAEAKIAIVMLIDELDRVEDEEVRVVAQLVKAVGDIKGISYLVAYDPSRVAQALGKGSTPEEKQKAGESYLEKIIQFPIPLRPLFMDEARDLLLQAMRNNDVTMPAESQSYQTEILNQLLRVIRTPREIKRLIGAFAVLEEIVRGEICPFDVLAYSWLVTKAPSLRERIADNIGQLVDDPSGEEMLARQRQRALATDKERTLTDILGSSAVSHLDILQLLFTRFNARREGSAEFFNGYRLALRRNLIRLLYLGNPPGDFSRRDIEVLWSLTNVDELEAELRRVKETDRLGPLLDRVGDFSASFPEAGDGIFWLALGRALVRENDWIRREEVERSLVDDACATLWRIARDGSEGSRRLRHIVHVLIEGGDLLIVPWLLRKHLFAHGLTNHGDRGRGDCIFEKDETIALRDKELPRYHDAVADGTALKKLPDTELIFCVLNSNYWDSKLKEDFTLQLDSIEAIVSFAALIMPPGIICDKSTLDLMLETDTVLKKANALLRQSGMPESDWLASAVRRLRTVLAGRDIHSADTLRDDFDQEELEHHHHHH | not soluble
MPAQIEDYALLGNCRSAALVSRDGALDWLCLPRFDAPAVFAALLGNEENGRWRLAPCDPVTHSSRQYLGDTLVLETTWVTASGRARVLDFMPLGEVNSVVRIVEGLSGETHFEMDLVMRFDYGLEHHHHHH | not soluble
MPDELKPHFANVQAHYDLSDDFFRLFLDPTQTYSCAYFERDDMTLQEAQIAKIDLALGKLGLQPGMTLLDVGCGWGATMMRAVEKYDVNVVGLTLSKNQANHVQQLVANSENLRSKRVLLAGWEQFDEPVDRIVSIGAFEHFGHERYDAFFSLAHRLLPADGVMLLHTITGLHPKEIHERGLPMSFTFARFLKFIVTEIFPGGRLPSIPMVQECASANGFTVTRVQSLQPHYAKTLDLWSAALQANKGQAIALQSEEVYERYMKYLTGCAEMFRIGYIDVNQFTCQK | soluble
MPDKKTLWMLNELEGFEKPKIKLEQYATSSELAVSMMEMIDETIGFEGKKLIDIGCGCGMLMTTAATMYELETVLGVDIDDEALKICSRNLETAEVQDRCELLQADILDPESDLPRGTFDVAVINPPFGTKNNAGIDMQFVQIGLQMVRPGGSVFSLHKSSTRDYILKNAKKWDGVGAECCAEMRWQLPATYKFHKQKAVDIAVDLIHFKKLDS | soluble
MPDMANVESFDLDHTKVKAPYVRLAGVKTTPKGDQISKYDLRFLQPNQGAIDPAAIHTLEHLLAGYMRDHLEGVVDVSPMGCRTGMYMAVIGEPDEQGVMKAFEAALKDTAGHDQPIPGVSELECGNYRDHDLAAARQHARDVLDQGLKVQETILLERGSHHHHHH | soluble
MPEGILPIERDLLRFKEIVRGEVKKRVREFLTREELFGQVEGRLVSIPLPQLEIPKIVHGEPLGEGLGLGGPGEEALGPGGHIPVAELELEEFLDLVGEALRLPRLRPKGEGEVTEEALRHTTIARKGPRGLRHVRRTLKESLKRALQSGEYRPEDPLLVPEREDLRYKAPRRKPIPHAQAVVLFALDVSGSMREEELKLVKTLSFWITLWIKRHFPRLERRYLLHDAEAWEVPEEEFFKAREGGGTRISSALLLAEEILKAYPEAFYNRYLFHFSDGENWQGDTPLALEALRRLLPSLALYGYAQVESPYGQGHFLEEVQEALGGREGVALAAVRGREDLPVALKRLLGG | soluble
MPELEVKGKKLRLDEDGFLQDWEEWDEEVAEALAKDTRFSPQPIELTEEHWKIIRYLRDYFIKYGVAPPVRMLVKHCKKEVRPDCNLQYIYKLFPQGPAKDACRIAGLPKPTGCV | soluble
MPERLQVYKCEVCGNIVEVLNGGIGELVCCNQDMKLMSENTVDAAKEKHVPVIEKIDGGYKVKVGAVAHPMEEKHYIQWIELLADDKCYTQFLKPGQAPEAVFLIEAAKVVAREYCNIHGHWKAEN | soluble
MPFIDIQSKVGINIDKWLLLQSSKQPYRWTTSCHAFEKEWVECSHGIGQIRAQKECKLEYEDFYECMHRNKLRQRLQAIQEQKKKLEKEGVYKAPDFTKDSNTP | not soluble
MPFRNAVQTASPPTTPKQKAHHDRIHVHPFGLGTHLCQRPLPHDQTVRRGRTQAQTFRTPHDRAGGRFRADRRSCLHPRIPCRIGTRSGLGVLCHSRLPVPDFCVSMFCVAVFLAHAQQGIDKHRNAV | not soluble
MPFVVIITGIPGVGKSTITKLALQRTRAKFKLINFGDLMFEEALKLKLVKHRDEMRKLPLEVQRELQMNAAKKIAEMAKNYPILLDTHATIKTPHGYLLGLPYEVIKILNPNFIVIIEATPSEILGRRLRDLKRDRDVETEEQIQRHQDLNRAAAITYAMHSNALIKIIENHEDKGLEEAVNELVKILDLAVKEYA | soluble
MPGFDYKFLEKPKRRLLCPLCGKPMREPVQVSTCGHRFCDTCLQEFLSEGVFKCPEDQLPLDYAKIYPDPELEVQVLGLPIRCIHSEEGCRWSGPLRHLQGHLNTCSFNVIPCPNRCPMKLSRRDLPAHLQHDCPKRRLKCEFCGCDFSGEAYESHEGMCPQESVYCENKCGARMMRRLLAQHATSECPKRTQPCTYCTKEFVFDTIQSHQYQCPRLPVACPNQCGVGTVAREDLPGHLKDSCNTALVLCPFKDSGCKHRCPKLAMARHVEESVKPHLAMMCALVSRQRQELQELRRELEELSVGSDGVLIWKIGSYGRRLQEAKAKPNLECFSPAFYTHKYGYKLQVSAFLNGNGSGEGTHLSLYIRVLPGAFDNLLEWPFARRVTFSLLDQSDPGLAKPQHVTETFHPDPNWKNFQKPGTWRGSLDESSLGFGYPKFISHQDIRKRNYVRDDAVFIRAAVELPRKILS | soluble
MPGFNYGGKGDGTGWSSERGSGPEPGGGSHGNSGGHDRGDSSNVGNESVTVMKPGDSYNTPWGKVIINAAGQPTMNGTVMTADNSSMVPYGRGFTRVLNSLVNNPVSLEHHHHHH | soluble
MPGHTSWDATFLEPAPPLPHPSECGQPCVSGQSQMFQHRTTNAQGPPPNRPMPRPPAGMPMMTSSHEHDYTNDYEDPEEMARSRGEGFSNHLLIKTTPPPQPHPNFNSYEMSMSQQRRSQQHQQPMAPPLSDCWGSGVHDSGVLHKNADGAYYIPSGSCKF | not soluble
MPGYAQYRSFSEDLSMNMEEIVALSVKHNVSDLHLCSAWPARWRIRGRMEAAPFDAPDVEELLREWLDDDQRAILLENGQLDFAVSLAENQRLRGSAFAQRQGISLALRLLPSHCPQLEQLGAPPVLPELLKSENGLILVTGATGSGKSTTLAAMVGYLNQHADAHILTLEDPVEYLYASQRCLIQQREIGLHCMTFASGLRAALREDPDVILLGELRDSETIRLALTAAETGHLVLATLHTRGAAQAVERLVDSFPAQEKDPVRNQLAGSLRAVLSQKLEVDKQEGRVALFELLINTPAVGNLIREGKTHQLPHVIQTGQKVGMLTFQQSYQQRVGEGRL | not soluble
MPHDPGATRLLAISPHLDDAVLSFGAGLAQAAQDGANVLVYTVFAGAAQPPYSPAAQRMHTIWGLAPDDDAVLYRRKEDIAALDHLRVAHRHGRFLDSIYRKLPDGRWLTAHVEGRQKLAVNDHSPDSDHDLVGEVADDIRSIIDEFDPTLVVTCAAIGEHPDHEATRDAALFATHEKNVPVRLWEDLPYAVFKSGAVELPQGFRLGSADVSSVKPEMRSQKFQAVERYSSQMVLLNGSENNLFDRLDEHARQNAPHGGYGETTWPVVRSDDS | soluble
MPIASYAQELKLALHQYPNFPSEGILFEDFLPIFRNPGLFQKLIDAFKLHLEEAFPEVKIDYIVGLESRGFLFGPTLALALGVGFVPVRKAGKLPGECFKATYEKEYGSDLFEIQKNAIPAGSNVIIVDDIIATGGSAAAAGELVEQLEANLLEYNFVMELDFLKGRSKLNAPVFTLLNAQKEALKK | soluble
MPIKSVAIIGAGIAGLTAALAFARHGIDCDIIEQTGELAEVGAGLQLSPNAARILATLGVLPDIEARWTEPVSVDLASGKSLTTLLSLPMGAVARSRWGAPYGVLHRSTLQSALLQAVTRNPLCRLHLGKRIENATADVIAATTFRDHDLIVGADGVWSAARFSVPAAPTATFSGNVAWRFTVAAEEVPSAFNKTTVTAYLGSRGHIVAYPLKEVGGFNIVAIALGADPGATWRAESSGRQKALLLEQFRDFSPDIVRLLDSSENPTFWPLYQAGPGRWHNGRDTVLIGDAAHAMMPFAAQGAAMAIEDAFELAGTMAGSNGEKPLPVPQALAAFEALRLPRIEKARKRASLNRFAYHARGPVRIARDLVFSTRPPEAFLKDFDWLYGYHARGLEHHHHHH | soluble
MPISIQQISYIHPDKEVLFSDLNFAISKGQKLGLVGNNGCGKSTLLQIIAGQLAPSSGVIVRPDDLYYIPQHFGQYDSLTIAQALQIDHKQKALHAILAGDASIENFSILNDDWNIEERSVAALDSWGLGQFPLSYPMNLLSGGEKTRVFLAGMDIHNPSVILMDEPTNHLDSSGRQRLYDWVEKWRSTLLVVSHDRTLLNLLPEICELEKHQISYYGGNYEFYKEQKTLMQEALQQRIEEKEKALRTARKVARETAERRDKQNVRGEKRNLKKGVPRIVLNGLQSKSEKSTAKLTGAHQEKAEKLTDERNQLRSSLSPTAALKTDFNNSGLHTGKILVTAEEINFGYHPDQPQLWQAPLSFQLKSGDRLRIEGGNGSGKTTLLKIITGQLQPLKGTLIQANFTYVYLNQEYSIINDRNSILEQAYAFNGRNLPEHEIKIILNRYLFPASEWDKSCRKLSGGEKMRLAFCCLMISNNMPDMFILDEPTNNLDIQSIEIITATIKNYAGTVIAISHDNYFIQEIGVEQSIFLS | not soluble
